Laboratory results: patent US20160304580A1 (ALLIGATOR BIOSCIENCE, published 2016)
Values belong to the binder of their own block, whether it stands above or below them.

Key:
[1] = target: T1, human CTLA4-Fc (Fitzgerald #30R-CD152) (human, UniProt P16410 38-152, biotinylated in the inhibition ELISAs (sites not given)); assay: binding ELISA on coated CTLA4-Fc; against wild type and H79A; upper end tied to 1040 by Table 7
T1 construct: Bought reagent; Used plain (coated or immobilised) and biotinylated (in solution); also called biotinylated-CTLA4; human CTLA-4 (Fitzgerald); not shown: Fc of the bought fusion protein
T1 sequence: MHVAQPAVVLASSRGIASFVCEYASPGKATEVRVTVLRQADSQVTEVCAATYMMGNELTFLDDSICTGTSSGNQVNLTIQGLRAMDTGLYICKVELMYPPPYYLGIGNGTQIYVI
Protocol: (§1) Similar to the protocol described in Example 2, 96-well flat bottom high binding plates (Greiner #655074) were coated with either CTLA4-Fc (Fitzgerald #30R-CD152) or CD28-Fc (kindly provided by Simon Davis, Oxford University) by incubating overnight at 4° C. The plates were washed (Wash buffer: PBS+0.05% Tween 20 (PBST) Medicago #09-9410-100) and then blocked in PBST+3% BSA (Merck, #1.12018.0100). The plates were washed again and sample or controls (serially diluted ⅓ from 50 000-0001 nM) were added to the wells. The samples were incubated for 1 h at room temperature and then washed. Detection antibody, goat-anti-human IgG Fcγ-HRP (Jackson, #109-035-098) was added and the plates were subsequently developed using SuperSignal Pico Chemiluminescent substrate (Thermo #37069) and detected with an Envision reader (Perkin Elmer).
(§2) Binding to CD28 was too low for detection by this assay (data not shown).

[2] = target: T1, human CTLA4-Fc (Fitzgerald #30R-CD152); assay: binding ELISA: CTLA4-Fc coated on the plate, sample serially diluted, detection with goat anti-human IgG Fcγ-HRP, chemiluminescence, data normalised to %
Protocol: as §1, §2

[3] = target: T1, human CTLA4-Fc (Fitzgerald #30R-CD152); assay: binding ELISA on coated CTLA4-Fc; against wild type and H79A; lower end tied to 1042 by Table 7
Protocol: as §1, §2

[4] = target: T1, human CTLA4-Fc (Fitzgerald #30R-CD152); assay: SPR (Biacore); ratio [Kd for CD28] / [Kd for CTLA-4] compared with wild type
Protocol: (§3) The phage clones selected from Example 1 were re-cloned according to standard protocols into a fusion protein-format, with each clone fused to γ2/γ4 Fc. The fusion proteins were expressed in HEK293 cells. Supernatants culure of the cells were collected and the expressed fusion proteins were assayed using both ELISA and Biacore™ according to the methods set out below.
Either CTLA4-Fc (Fitzgerald #30R-CD152) or CD28-Fc (R&D systems 342-CD) was immobilized to the Biacore™ senshorship, CM5, using conventional amine coupling. The CD86 mutant molecules and controls (serially diluted ½ 100-1.5 nM) were analyzed for binding in HBs-P (GE, BR-1003-69) at a flow rate […]. The association was followed for 3 minutes and the dissociation for 10 minutes. Regeneration was performed twice using 5 mM NaOH for 30 seconds. The kinetic parameters and the affinity constants were calculated using BIAevaluation 4.1 software.

[5] = target: T1, human CTLA4-Fc (Fitzgerald #30R-CD152); assay: ELISA; ratio [EC50 for CD28] / [EC50 for CTLA-4] compared with wild type
Protocol: as §3
as §1, with “96-well” for “Similar to the protocol described in Example 2, 96-well”, “(R&D systems 342-CD)” for “(kindly provided by Simon Davis, Oxford University)”, “⅕” for “⅓”, “200-0.001 μg/ml)” for “50 000-0001 nM)”, “Elmer). EC50 values were calculated for both CTLA4 and CD28. The binding ratio (EC50 binding ratio=[EC50 for CD28]÷[EC50 for CTLA-4]) was calculated for each polypeptide and is shown in Table 4.” for “Elmer).”

B2: CD86 mutant clone 1042 expressed as a gamma2/gamma4 fusion (Fc fusion)
chain: APLKIQAYFNETADLPCQFANSQNLSLSELVVFWQDQENLVLNEVYLGKEIFDSVSSKYMGRTSFDSDSWTLRLHNLQIKDKGIYQCIIHHKKPSGMVKIHQMDSELSVLA
notes: Purified on protein A; not shown: gamma2/gamma4 Fc
fold improvement of EC50 [3]: 2 to 67 fold

B4: CD86 mutant clone 907 fused to γ2/γ4 Fc (Fc fusion)
chain: LKIQAYFNETADLPCQFANSQNQSLSELVVFWQDQENLVLNEVYLGKEKFDSVHSKYMGRTSFDSDSWTLRLHNLQIKDKGLYQCIIHHKKPTGMIKIHEMNSELSVLA
notes: not shown: γ2/γ4 Fc
fold of EC50 binding ratio over wild-type CD86 [5]: ~10 times

Next, values leading:

fold improvement of EC50 [1]: 2 to 67 fold
EC50 (read off the curve) [2]: ~8 ng/mL
B1: CD86 mutant clone 1040 expressed as a gamma2/gamma4 fusion (Fc fusion)
chain: APLKIQAYFNETADLPCQFANSQNLSLSELVVFWQDQENLVLNEVYLGKERFDSVDSKYMGRTSFDSDSWTLRLHNLQIKDKGRYQCIIHHKKPTGMINIHQMNSELSVLA
notes: as for B2

fold of Kd binding ratio over wild type CD86 [4]: > 4 times
B3: CD86 mutant clone 904 fused to γ2/γ4 Fc (Fc fusion)
chain: LKIQAYFNETADLPCQFANSQNQSLSELIVFWQDQENLVLNEVYLGKERFDAVDSKYMGRTSFDSDSWTLRLHNLQIKDKGIYQCIIHHKKPSGMVKIHQMDSELSVLA
notes: not shown: γ2/γ4 Fc
